Experimental data reported in patent publication US20060078537A1.

Molecular target: human CCR5 (human) (UniProt P51681)
Test: cell-based or functional assay

human CCR5 (human), sequence (P51681 whole entry): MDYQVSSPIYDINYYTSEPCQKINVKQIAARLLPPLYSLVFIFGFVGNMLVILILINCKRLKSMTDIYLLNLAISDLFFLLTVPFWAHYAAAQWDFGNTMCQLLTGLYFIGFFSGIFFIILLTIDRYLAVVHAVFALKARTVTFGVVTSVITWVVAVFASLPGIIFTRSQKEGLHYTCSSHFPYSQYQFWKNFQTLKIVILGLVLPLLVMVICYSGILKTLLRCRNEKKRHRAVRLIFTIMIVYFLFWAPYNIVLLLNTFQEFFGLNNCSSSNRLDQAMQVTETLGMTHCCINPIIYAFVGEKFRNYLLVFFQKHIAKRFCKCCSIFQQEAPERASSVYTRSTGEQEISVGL

B1: MC-1 anti-CCR5 monoclonal antibody (antibody, from another filing, V domains shown)
VH: QVQLQQPGAGRVRPGASVKLSCKASGYSFTSYWMNWVKQRPGQGLEWIGMIHPSDSETRLNQKFNDRATLTVDKYSSTAYIQLSSPTSEDSAVYYCARGEYYYGIFDYWGQGTTVTVSS
VL: DIQLTQSPASLSASVGETVTITCRASENIYSYLAWYQQKQGKSPQLLVYNAKTLTEGVPSRFSGSGSGTQFSLKINSLQPEDFGNYFCQHHYDTPRTFGGGTKLEIK
  decrease of cell surface CCR5 on CHO cells expressing CCR5 (FACS, 30 minutes at 37° C.) at 5 µg/ml MC-1: 50%
